Source: publication PMC5291247
Where “and” joins values, the source holds several entries; their conditions need not be identical. Equal entries are not always repeated.

How the values were obtained:
[1] = molecular target: Vps75 from which native cysteine residues had been removed (yeast (S. cerevisiae in the introduction)) (UniProt P53853); assay: cross-linking; Vps75 titrated with H3-H4 at 200 mM NaCl, 20 mM HEPES pH 7.5; 30 min room temperature, 2 mM BS2G for 1 h, SDS-PAGE
[2] = molecular target: Vps75 from which native cysteine residues had been removed (yeast (S. cerevisiae in the introduction)) (UniProt P53853); assay: SEC-MALS + cross-linking; partial DTSSP cross-linking at 200 mM NaCl, 20 mM HEPES pH 7.5 (Vps75 alone, or Vps75 dimers and H3-H4 dimers 1:1, 10 uM); SEC-MALS on Superdex 200 10/300 GL at 400 mM NaCl, 20 mM HEPES-KOH pH 7.5; fractions on SDS-PAGE with and without DTT
[3] = molecular target: Vps75 from which native cysteine residues had been removed (yeast (S. cerevisiae in the introduction)) (UniProt P53853); assay: cross-linking; cross-linking analysis of Vps75 with Asf1 and H3-H4, SDS-PAGE (Supplementary Figure S4)

Row | stoichiometry N [1] | stoichiometry N [2] | stoichiometry N (Vps75 monomers per H3-H4 dimer) [3] | Substance
1 | 4 | 4 and 2 |  | Vps75 from which native cysteine residues had been removed (from UniProt P53853 1-264) (natural protein)
2 |  |  | 2 | histones H3–H4 from which native cysteine residues had been removed (from UniProt P84233 1-136; P62799 1-103) (complex)
